Reference: patent US20240141042A1 (INNATE PHARMA, published 2024)
Where a chain is given by its changes, count along the chain named.

Tests used:
[1] = target: T1, NKp46 mutant Supp6 (human, UniProt O76036 22-304); experiment: flow cytometry on HEK293T cells transfected with NKp46 mutant Supp6 (E104A, L105A; printed 'Mutant S6'), antibody titrated 0.001-1 ug/ml
T1 construct: Expressed in transfected HEK293T cells; also called supplementary mutant Supp6
T1 chain: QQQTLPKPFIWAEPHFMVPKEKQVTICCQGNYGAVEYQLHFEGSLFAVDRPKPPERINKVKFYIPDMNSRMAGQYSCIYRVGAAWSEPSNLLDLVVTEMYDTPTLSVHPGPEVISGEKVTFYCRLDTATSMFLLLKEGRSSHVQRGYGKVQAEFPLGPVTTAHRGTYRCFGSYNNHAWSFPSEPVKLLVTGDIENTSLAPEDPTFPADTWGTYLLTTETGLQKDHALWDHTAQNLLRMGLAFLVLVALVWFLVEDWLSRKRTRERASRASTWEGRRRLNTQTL

[2] = target: T2, NKp46 mutant 2 (human, UniProt O76036 22-304); experiment: flow cytometry on HEK293T cells transfected with NKp46 mutant 2 (K41S, E42A, E119A), antibody titrated 0.001-1 ug/ml
T2 construct: Expressed in transfected HEK293T cells
T2 chain: T1 chain with K20S, E21A, A83E, A84L, E98A
Protocol: All the anti-NKp46 antibodies were tested for their binding to each mutant by flow cytometry. A first experiment was performed to determine antibodies that lose their binding to one or several mutants at one concentration (10 μg/ml).

[3] = target: T3, NKp46 mutant 19 (human, UniProt O76036 22-304); experiment: flow cytometry on HEK293T cells transfected with NKp46 mutant 19 (I135A, S136A), antibody titrated 0.001-1 ug/ml
T3 construct: Expressed in transfected HEK293T cells
T3 chain: T1 chain with A83E, A84L, I114A, S115A

[4] = target: T4, NKp46 mutant Supp7 (human, UniProt O76036 22-304); experiment: flow cytometry on HEK293T cells transfected with NKp46 mutant Supp7 (Y121A, Y194A; printed 'Mutant S7'), antibody titrated 0.001-1 ug/ml
T4 construct: Expressed in transfected HEK293T cells; also called supplementary mutant Supp7
T4 chain: T1 chain with A83E, A84L, Y100A, Y173A

[5] = target: T5, NKp46 mutant 6 (human, UniProt O76036 22-304); experiment: flow cytometry on HEK293T cells transfected with NKp46 mutant 6 (R101A, V102A), antibody titrated 0.001-1 ug/ml
T5 construct: Expressed in transfected HEK293T cells
T5 chain: T1 chain with R80A, V81A, A83E, A84L

[6] = target: T6, NKp46 mutant Supp8 (human, UniProt O76036 22-304); experiment: flow cytometry on HEK293T cells transfected with NKp46 mutant Supp8 (P132A, E133A; printed 'Mutant S8'), antibody titrated 0.001-1 ug/ml
T6 construct: Expressed in transfected HEK293T cells; also called supplementary mutant Supp8
T6 chain: T1 chain with A83E, A84L, P111A, E112A

[7] = target: T7, human NKp46 expressed at the cell surface (human, UniProt O76036 22-304); experiment: flow cytometry on HEK293T cells transfected with wild-type NKp46, antibody titrated 0.001-1 ug/ml
T7 construct: Wild-type NKp46 on cells (transfected cell lines or NK cells); also called cell line expressing the human NKp46 construct; NKp46 cell line

[8] = target: T8, Human NKp46 recombinant proteins (human, UniProt O76036 22-258); experiment: SPR, bispecific captured on Protein-A chip
T8 construct: also called recombinant human NKp46 proteins
Protocol: SPR measurements were performed on a Biacore T100 apparatus (Biacore GE Healthcare) at 25° C. In all Biacore experiments HBS-EP+(Biacore GE Healthcare) and NaOH 10 mM served as running buffer and regeneration buffer respectively. Sensorgrams were analyzed with Biacore T100 Evaluation software. Protein-A was purchase from (GE Healthcare). Human NKp46 recombinant proteins were cloned, produced and purified at Innate Pharma.
Protein-A proteins were immobilized covalently to carboxyl groups in the dextran layer on a Sensor Chip CM5. The chip surface was activated with EDC/NHS (N-ethyl-N′-(3-dimethylaminopropyl) carbodiimidehydrochloride and N-hydroxysuccinimide (Biacore GE Healthcare)). Protein-A was diluted to 10 μg/ml in coupling buffer (10 mM acetate, pH 5.6) and injected until the appropriate immobilization level was reached (i.e. 2000 RU). Deactivation of the remaining activated groups was performed using 100 mM ethanolamine pH 8 (Biacore GE Healthcare).

Measured: binding result

B1: NKp46-6 (antibody, V domains shown)
VH: QVQLQQPGSVLVRPGASVKLSCKASGYTFTSSWMHWAKQRPGQGLEWIGHIHPNSGISNYNEKFKGKATLTVDTSSSTAYVDLSSLTSEDSAVYYCARGGRFDDWGAGTTVTVSS
VL: DIVMTQSPATLSVTPGDRVSLSCRASQSISDYLHWYQQKSHESPRLLIKYASQSISGIPSRFSGSGSGSDFTLSINSVEPEDVGVYYCQNGHSFLMYTFGGGTKLEIK
notes: not in the list MOLECULES as an antibody; also called antibody NKp46-6; monoclonal antibody NKp46-6
not listed: [8]
binds: all other assays above

B2: CD19-F2-NKp46-3 (bispecific antibody)
chain 1: DIQLTQSPASLAVSLGQRATISCKASQSVDYDGDSYLNWYQQIPGQPPKLLIYDASNLVSGIPPRFSGSGSGTDFTLNIHPVEKVDAATYHCQQSTEDPWTFGGGTKLEIKGGGGSGGGGSGGGGSQVQLQQSGAELVRPGSSVKISCKASGYAFSSYWMNWVKQRPGQGLEWIGQIWPGDGDTNYNGKFKGKATLTADESSSTAYMQLSSLASEDSAVYFCARRETTTVGRYYYAMDYWGQGTTVTVSSGGGSSAPELLGGPSVFLFPPKPKDTLMISRTPEVTCVVVDVSHEDPEVKFNWYVDGVEVHNAKTKPREEQYNSTYRVVSVLTVLHQDWLNGKEYKCKVSNKALPAPIEKTISKAKGQPREPQVYTKPPSREEMTKNQVSLSCLVKGFYPSDIAVEWESNGQPENNYKTTVPVLDSDGSFRLASYLTVDKSRWQQGNVFSCSVMHEALHNHYTQKSLSLSPGSTGSEVQLQQSGPELVKPGASVKISCKTSGYTFTEYTMHWVKQSHGKSLEWIGGISPNIGGTSYNQKFKGKATLTVDKSSSTAYMELRSLTSEDSAVYYCARRGGSFDYWGQGTTLTVSSASTKGPSVFPLAPSSKSTSGGTAALGCLVKDYFPEPVTVSWNSGALTSGVHTFPAVLQSSGLYSLSSVVTVPSSSLGTQTYICNVNHKPSNTKVDKRVEPKSCDKTH
chain 2: DIVMTQSPATLSVTPGDRVSLSCRASQSISDYLHWYQQKSHESPRLLIKYASQSISGIPSRFSGSGSGSDFTLSINSVEPEDVGVYYCQNGHSFPLTFGAGTKLELKRTVAAPSVFIFPPSDEQLKSGTASVVCLLNNFYPREAKVQWKVDNALQSGNSQESVTEQDSKDSTYSLSSTLTLSKADYEKHKVYACEVTHQGLSSPVTKSFNRGEC
notes: Heterodimer with monomeric Fc; also called bi-specific antibody NKp46-3 (F2)
binds: [8]
